In patent US5726018 one finds 32P incorporation (stoichiometry of phosphorylation) data, which are given here for three substances.

Test [1] addresses pp35 (35 kDa murine nuclear phosphoprotein purified from A20 cells) (murine).
The target of test [2] is pp35, dephosphorylated (murine).
Test [3] has as its target pp32 (32 kDa murine nuclear phosphoprotein from A20 cells) (murine) (UniProt O35381).
Test [4] concerns the target pp32, dephosphorylated (murine) (UniProt O35381).

For the substance “protein kinase C from rat brain (80 kDa isoenzyme)”, the 32P incorporation (stoichiometry of phosphorylation) in test [1], in test [2], in test [3] and in test [4] was less than 0.01 mol/mol each time.
Consider “casein kinase II from bovine thymus (enzyme)”, for which the 32P incorporation (stoichiometry of phosphorylation) in test [1] was 0.05 mol/mol; in test [2], 0.76 mol/mol; in test [3], less than 0.01 mol/mol; in test [4] it was 0.08 mol/mol.
Regarding “A 431 cell epidermal growth factor receptor kinase (from UniProt P00533) (enzyme)”, the 32P incorporation (stoichiometry of phosphorylation) in test [4] was less than 0.01 mol/mol.
